Where a chain is given by its changes, count along the chain named. In names and notes the source's numbering stands.
B1: KOD Y7A: modified DNA polymerase derived from Thermococcus kodakaraensis KOD1 with Y7A (protein, listed as Thermococcus kodakaraensis)
chain: MILDTDAITEDGKPVIRIFKKENGEFKIEYDRTFEPYFYALLKDDSAIEEVKKITAERHGTVVTVKRVEKVQKKFLGRPVEVWKLYFTHPQDVPAIRDKIREHPAVIDIYEYDIPFAKRYLIDKGLVPMEGDEELKMLAFDIETLYHEGEEFAEGPILMISYADEEGARVITWKNVDLPYVDVVSTEREMIKRFLRVVKEKDPDVLITYNGDNFDFAYLKKRCEKLGINFALGRDGSEPKIQRMGDRFAVEVKGRIHFDLYPVIRRTINLPTYTLEAVYEAVFGQPKEKVYAEEITTAWETGENLERVARYSMEDAKVTYELGKEFLPMEAQLSRLIGQSLWDVSRSSTGNLVEWFLLRKAYERNELAPNKPDEKELARRRQSYEGGYVKEPERGLWENIVYLDFRSLYPSIIITHNVSPDTLNREGCKEYDVAPQVGHRFCKDFPGFIPSLLGDLLEERQKIKKKMKATIDPIERKLLDYRQRAIKILANSYYGYYGYARARWYCKECAESVTAWGREYITMTIKEIEEKYGFKVIYSDTDGFFATIPGADAETVKKKAMEFLKYINAKLPGALELEYEGFYKRGFFVTKKKYAVIDEEGKITTRGLEIVRRDWSEIAKETQARVLEALLKDGDVEKAVRIVKEVTEKLSKYEVPPEKLVIHEQITRDLKDYKATGPHVAVAKRLAARGVKIRPGTVISYIVLKGSGRIGDRAIPFDEFDPTKHKYDAEYYIENQVLPAVERILRAFGYRKEDLRYQKTRQVGLSAWLKPKGT
B2: KOD P36R: modified KOD DNA polymerase with P36R (protein, listed as Thermococcus kodakaraensis)
chain: B1 chain with A7Y, P36R
B3: KOD V93R: modified KOD DNA polymerase with V93R (protein, listed as Thermococcus kodakaraensis)
chain: B1 chain with A7Y, V93R
B4: KOD P36H: modified KOD DNA polymerase with P36H (protein, listed as Thermococcus kodakaraensis)
chain: B1 chain with A7Y, P36H
B5: KOD V93Q: modified KOD DNA polymerase with V93Q (protein, listed as Thermococcus kodakaraensis)
chain: B1 chain with A7Y, V93Q
B6: KOD V93K: modified KOD DNA polymerase with V93K (protein, listed as Thermococcus kodakaraensis)
chain: B1 chain with A7Y, V93K
B7: KOD P36H/V93K: modified KOD DNA polymerase with P36H and V93K (protein, listed as Thermococcus kodakaraensis)
chain: B1 chain with A7Y, P36H, V93K

Tests used:
Type in all cases: biochemical
Psychrobacter DNA = assay: PCR amplification using inosine-containing primers; details: primers 75 pmol or 150 pmol, 35 cycles (FIG. 11)
Protocol: Using inosine-containing primers, the difference in PCR amplification was compared. For comparison, KOD mutants and KOD (wild-type), each mixed with 1 μg of a KOD antibody per U of the enzyme, and Taq DNA polymerase mixed with an antibody (a mixture of equal amounts of Taq DNA polymerase (produced by Toyobo Co. Ltd.) and Anti-Taq High (produced by Toyobo Co. Ltd.)) were used.
For PCR with the KOD mutants and PCR with the KOD, a buffer, MgSO4, and dNTPs included in KOD-Plus-Ver. 2 (produced by Toyobo Co. Ltd.) were used. 50 μl of individual reaction solutions containing 1× PCR buffer, 1.5 mM MgSO4, dNTPs (dATP, dTTP, dCTP, dGTP) in an amount of 0.2 mM, primers (SEQ ID NOs: 40 and 41) in an amount of 75 pmol or 150 pmol, 100 ng of Psychrobacter DNA, and 1 U of each respective enzyme mixed with the antibody were used. PCR was performed using a GeneAmp PCR system 9700 (Applied Biosystems) on the following schedule: preliminary reaction at 94° C. for 2 minutes, followed by 35 cycles, each cycle consisting of 98° C. for 10 seconds, 54° C. for 10 seconds, and 68° C. for 1 minute.
For PCR with the Taq DNA polymerase, 50 μl of a reaction solution containing 1× buffer included in Blend Taq (product of Toyobo), dNTPs (dATP, […], dCTP, dGTP) in an amount of 0.2 mM, primers in an amount of 75 pmol or 150 pmol (the same as above), 100 ng of Psychrobacter DNA, and 2.5 U of the enzyme mixed with the antibody was used. PCR was performed using a GeneAmp PCR system 9700 (Applied Biosystems) on the following schedule: preliminary reaction at 94° C. for 2 minutes, followed by 35 cycles, each cycle consisting of 94° C. for 30 seconds, 54° C. for 30 seconds, and 68° C. for 1 minute.
After the completion of each individual reaction, each of the resulting reaction solutions was analyzed using a DNA-1000 kit for MultiNA (produced by Shimadzu Corporation) to confirm amplified DNA fragments.

[1] = system: 1.3 kbp, 2.8 kbp, and 3.6 kbp of human β-globin; assay: Amplification of long-chain DNA in PCR using dUTP; design: key to Results of PCR in the presence of dUTP 1.3 kbp / Results of PCR in the presence of dUTP 2.8 kbp / Results of PCR in the presence of dUTP 3.6 kbp: A: Amplified; B: Amplified (faint band); C: Not amplified; details: dTTP replaced by dUTP, 35 cycles
In short: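 Enzymes (1 U, premixed with KOD antibody) amplified 1.3, 2.8 and 3.6 kbp β-globin from 10 ng human genomic DNA with 2 mM dNTPs having dUTP in place of dTTP, 1.5 mM MgSO4, 35 cycles (98° C. 10 s, 65° C. 30 s, 68° C. ~1 min/kbp). Taq control: 2.5 U, 94° C. denaturation. Yield judged by ethidium-stained agarose gel.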

[2] = system: 0.7 kbp of human β-globin amplified in PCR with dUTP; assay: Degradation with UNG of DNA amplified in the presence of dUTP; details: for degradation with UNG of DNA amplified with the polymerase in the presence of dUTP: 37° C. for 10 minutes (FIG. 13)
Protocol: It was confirmed whether 0.7 kbp of human β-globin amplified using KOD mutant with reduced uracil sensitivity (N210D/Y7A/P36H) in PCR with dUTP was degraded by being reacted with UNG. For PCR, components included in KOD-Plus-Ver. 2 (produced by Toyobo Co. Ltd.) were used. 50 μl of a reaction solution containing 1× PCR buffer, 1.5 mM MgSO4, dNTPs (dATP, dUTP, dCTP, dGTP) in an amount of 2 mM in which dTTP was replaced by dUTP, primers (SEQ ID NOs: 50 and 51) in an amount of 15 pmol, 10 ng of human genomic DNA (produced by Roche), and 1 U of the enzyme mixed with an antibody was used. PCR was performed using a GeneAmp PCR system 9700 (Applied Biosystems) on the following schedule: preliminary reaction at 94° C. for 2 minutes, followed by 35 cycles, each cycle consisting of 98° C. for 10 seconds, 60° C. for 30 seconds, and 68° C. for 1 minute. The amplification products were diluted with the above-mentioned 1× PCR buffer to 10 ng/μl, 8 μl of the diluted amplification products was mixed with 2 μl of various concentrations of UNG (produced by Roche), and the mixtures were reacted at 37° C. for 10 minutes. After the completion of each individual reaction, each of the mixtures was analyzed using a DNA-1000 kit for MultiNA (produced by Shimadzu Corporation) to confirm the amount of amplification products.

| Molecule | amplification with inosine-containing primers (Psychrobacter DNA) | Results of PCR in the presence of dUTP 1.3 kbp [1] | Results of PCR in the presence of dUTP 2.8 kbp [1] | Results of PCR in the presence of dUTP 3.6 kbp [1] | amount of UNG that completely degraded the amplified DNA ([2]; 80 ng of DNA, 37° C. for 10 minutes) [U] | degradation with UNG of DNA amplified with the polymerase in the presence of dUTP [2] |
| --- | --- | --- | --- | --- | --- | --- |
| KOD N210D/Y7A/P36H: KOD N210D (exo(−)) mutant with Y7A and P36H | stable amplification was confirmed | A | A | A | 0.25 | can be degraded by being reacted with UNG |
| KOD Y7A/P36H: modified KOD DNA polymerase with Y7A and P36H | stable amplification was confirmed | A | A | B |  | the DNA was degraded with UNG |
| KOD Y7A/V93K: modified KOD DNA polymerase with Y7A and V93K | stable amplification was confirmed | A | A | B |  | the DNA was degraded with UNG |
| B1 |  | C | C | C |  |  |
| B2 |  | B | B | B |  |  |
| B3 |  | B | B | B |  |  |
| B4 |  | B | B | C |  |  |
| B5 |  | C | C | C |  |  |
| B6 |  | B | B | B |  |  |
| B7 |  | A | A | C |  |  |

From US20150218534A1, “MODIFIED DNA POLYMERASE” (TOYOBO CO., LTD., priority 2012, published 2015)
